From article PMC6202052

Assays:
[1] = target: biotinylated human N1 ectodomain fragment containing EGF repeats 6–15 (human) (UniProt P46531); assay: BLI; BLItz instrument; biotinylated Notch1 fragment loaded on streptavidin biosensors, dipped into ligand samples of varying concentration until equilibrium; HBS-P buffer with 0.005% surfactant P20 and 5 mM CaCl2; equilibrium curves fitted with a one site specific binding model
[2] = target: Notch1 expressed in N1rep ES cells (UniProt Q01705)
[3] = target: Notch1 expressed in N1rep ES cells (UniProt Q01705); remark: listed apart in the source
[4] = target: Notch2 expressed in N2rep ES cells (UniProt O35516)

Chain of biotinylated human N1 ectodomain fragment containing EGF repeats 6–15 (human) (P46531 216-604): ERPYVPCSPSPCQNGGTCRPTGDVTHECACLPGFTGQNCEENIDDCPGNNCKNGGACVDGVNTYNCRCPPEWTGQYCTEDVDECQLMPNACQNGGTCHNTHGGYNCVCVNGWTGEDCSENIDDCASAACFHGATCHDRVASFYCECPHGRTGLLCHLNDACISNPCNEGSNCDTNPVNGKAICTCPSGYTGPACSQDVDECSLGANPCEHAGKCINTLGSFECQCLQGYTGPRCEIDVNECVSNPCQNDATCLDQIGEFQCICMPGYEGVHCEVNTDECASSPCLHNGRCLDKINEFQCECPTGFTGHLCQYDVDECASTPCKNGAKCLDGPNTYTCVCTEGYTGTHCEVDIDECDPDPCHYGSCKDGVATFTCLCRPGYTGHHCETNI
Chain of mDLL4 (mouse DLL4, full length, expressed on ES cells) (Q9JI71 27-686): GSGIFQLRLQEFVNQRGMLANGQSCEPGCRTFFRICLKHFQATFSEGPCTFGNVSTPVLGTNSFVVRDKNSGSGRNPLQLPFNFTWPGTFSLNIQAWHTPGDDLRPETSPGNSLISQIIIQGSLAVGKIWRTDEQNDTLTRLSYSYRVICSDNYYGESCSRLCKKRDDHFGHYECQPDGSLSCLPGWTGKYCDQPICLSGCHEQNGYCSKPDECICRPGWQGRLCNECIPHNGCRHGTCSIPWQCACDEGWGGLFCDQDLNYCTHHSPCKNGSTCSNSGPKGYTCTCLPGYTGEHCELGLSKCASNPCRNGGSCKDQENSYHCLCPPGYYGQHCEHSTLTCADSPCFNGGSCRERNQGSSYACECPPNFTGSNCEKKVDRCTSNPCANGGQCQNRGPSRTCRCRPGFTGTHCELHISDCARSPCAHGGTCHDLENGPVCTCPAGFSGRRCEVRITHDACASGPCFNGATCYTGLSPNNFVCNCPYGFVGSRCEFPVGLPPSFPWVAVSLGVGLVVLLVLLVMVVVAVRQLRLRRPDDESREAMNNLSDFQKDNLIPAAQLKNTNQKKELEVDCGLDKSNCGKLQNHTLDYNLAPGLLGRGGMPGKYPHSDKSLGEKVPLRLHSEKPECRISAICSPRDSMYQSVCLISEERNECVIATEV
Chain of Notch1 expressed in N1rep ES cells (Q01705 19-2531): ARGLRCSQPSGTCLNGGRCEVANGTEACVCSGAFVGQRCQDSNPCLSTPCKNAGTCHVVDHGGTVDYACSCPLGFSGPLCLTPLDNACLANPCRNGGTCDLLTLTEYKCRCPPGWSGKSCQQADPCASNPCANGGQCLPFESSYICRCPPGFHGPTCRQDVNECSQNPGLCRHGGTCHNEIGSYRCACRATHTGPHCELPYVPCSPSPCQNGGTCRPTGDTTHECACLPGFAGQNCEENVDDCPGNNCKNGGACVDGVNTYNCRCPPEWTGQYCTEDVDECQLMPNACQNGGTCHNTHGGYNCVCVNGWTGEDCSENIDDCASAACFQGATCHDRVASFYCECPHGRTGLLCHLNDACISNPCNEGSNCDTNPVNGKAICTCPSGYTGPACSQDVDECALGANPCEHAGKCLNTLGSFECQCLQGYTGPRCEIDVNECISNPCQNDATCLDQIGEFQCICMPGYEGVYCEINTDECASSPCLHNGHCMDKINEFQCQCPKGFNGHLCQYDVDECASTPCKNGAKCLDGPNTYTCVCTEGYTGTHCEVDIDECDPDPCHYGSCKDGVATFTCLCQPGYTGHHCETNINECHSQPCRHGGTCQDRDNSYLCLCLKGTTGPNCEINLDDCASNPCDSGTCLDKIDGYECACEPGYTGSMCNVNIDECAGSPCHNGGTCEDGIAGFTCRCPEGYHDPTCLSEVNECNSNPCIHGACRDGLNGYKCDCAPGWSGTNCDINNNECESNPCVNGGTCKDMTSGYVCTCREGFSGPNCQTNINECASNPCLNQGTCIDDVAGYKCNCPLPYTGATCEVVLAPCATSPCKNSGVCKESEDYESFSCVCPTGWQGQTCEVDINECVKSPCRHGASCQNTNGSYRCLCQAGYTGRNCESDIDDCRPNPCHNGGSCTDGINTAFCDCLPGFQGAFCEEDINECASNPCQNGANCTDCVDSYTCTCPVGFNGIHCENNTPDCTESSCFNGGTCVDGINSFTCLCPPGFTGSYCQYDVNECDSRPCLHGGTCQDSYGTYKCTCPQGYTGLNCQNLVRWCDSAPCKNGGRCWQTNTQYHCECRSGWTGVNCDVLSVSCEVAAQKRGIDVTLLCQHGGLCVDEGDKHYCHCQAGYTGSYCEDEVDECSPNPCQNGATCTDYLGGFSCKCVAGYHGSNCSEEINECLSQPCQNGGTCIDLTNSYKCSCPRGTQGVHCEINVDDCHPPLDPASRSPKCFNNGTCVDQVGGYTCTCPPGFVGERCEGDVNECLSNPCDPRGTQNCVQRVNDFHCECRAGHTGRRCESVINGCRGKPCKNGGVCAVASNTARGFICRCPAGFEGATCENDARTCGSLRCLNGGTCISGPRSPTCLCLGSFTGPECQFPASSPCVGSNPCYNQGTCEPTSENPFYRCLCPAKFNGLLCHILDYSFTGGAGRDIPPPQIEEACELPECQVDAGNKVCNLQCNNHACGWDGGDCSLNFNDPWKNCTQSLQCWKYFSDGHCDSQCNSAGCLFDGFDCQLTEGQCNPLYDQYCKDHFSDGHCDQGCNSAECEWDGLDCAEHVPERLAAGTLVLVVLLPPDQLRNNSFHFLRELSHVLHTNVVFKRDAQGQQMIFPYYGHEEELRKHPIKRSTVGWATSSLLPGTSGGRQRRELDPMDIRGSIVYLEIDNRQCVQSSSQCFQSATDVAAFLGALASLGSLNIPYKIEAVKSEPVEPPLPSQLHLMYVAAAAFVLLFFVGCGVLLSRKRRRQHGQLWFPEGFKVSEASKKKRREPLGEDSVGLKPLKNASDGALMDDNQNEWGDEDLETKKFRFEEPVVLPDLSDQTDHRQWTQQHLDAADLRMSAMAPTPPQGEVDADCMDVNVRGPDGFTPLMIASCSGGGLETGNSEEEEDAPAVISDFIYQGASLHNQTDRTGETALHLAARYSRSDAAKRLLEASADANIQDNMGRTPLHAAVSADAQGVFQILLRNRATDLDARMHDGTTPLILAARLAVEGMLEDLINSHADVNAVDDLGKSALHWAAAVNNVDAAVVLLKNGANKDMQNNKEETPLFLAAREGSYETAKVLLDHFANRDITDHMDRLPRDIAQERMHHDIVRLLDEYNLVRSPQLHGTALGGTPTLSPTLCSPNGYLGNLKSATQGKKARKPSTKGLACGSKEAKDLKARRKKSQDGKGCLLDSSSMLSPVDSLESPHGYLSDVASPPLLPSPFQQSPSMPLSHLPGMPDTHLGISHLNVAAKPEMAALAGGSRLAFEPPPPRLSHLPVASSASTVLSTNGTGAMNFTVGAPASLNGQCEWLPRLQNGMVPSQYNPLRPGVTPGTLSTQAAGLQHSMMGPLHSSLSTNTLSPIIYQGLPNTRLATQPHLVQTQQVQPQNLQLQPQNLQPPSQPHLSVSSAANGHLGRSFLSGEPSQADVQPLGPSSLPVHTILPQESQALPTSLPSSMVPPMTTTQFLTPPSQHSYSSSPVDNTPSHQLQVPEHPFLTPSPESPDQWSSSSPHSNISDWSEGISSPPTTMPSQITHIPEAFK
Chain of mDLL1 (mouse DLL1, full length, expressed on ES cells) (Q61483 18-722): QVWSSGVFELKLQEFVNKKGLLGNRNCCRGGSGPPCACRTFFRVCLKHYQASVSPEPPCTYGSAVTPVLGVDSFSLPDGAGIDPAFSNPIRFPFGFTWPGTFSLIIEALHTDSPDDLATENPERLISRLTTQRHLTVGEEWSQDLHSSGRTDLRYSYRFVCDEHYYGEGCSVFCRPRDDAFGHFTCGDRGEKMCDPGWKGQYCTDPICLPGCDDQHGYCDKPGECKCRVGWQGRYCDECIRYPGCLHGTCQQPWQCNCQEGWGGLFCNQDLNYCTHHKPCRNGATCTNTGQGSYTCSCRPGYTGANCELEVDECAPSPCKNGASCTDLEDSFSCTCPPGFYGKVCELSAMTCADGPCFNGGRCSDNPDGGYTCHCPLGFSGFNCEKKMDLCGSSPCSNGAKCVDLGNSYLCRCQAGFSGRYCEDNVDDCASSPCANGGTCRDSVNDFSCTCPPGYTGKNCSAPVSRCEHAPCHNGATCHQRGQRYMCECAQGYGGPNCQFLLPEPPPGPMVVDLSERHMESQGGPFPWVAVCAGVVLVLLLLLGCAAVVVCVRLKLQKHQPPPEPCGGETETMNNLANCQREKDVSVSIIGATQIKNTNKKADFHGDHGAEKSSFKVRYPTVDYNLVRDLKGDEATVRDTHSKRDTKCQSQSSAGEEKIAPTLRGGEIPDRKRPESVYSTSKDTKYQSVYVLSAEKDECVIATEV

D1contD4 (DLL1 N-terminus through EGF5 with the N1 contact amino acids of the MNNL and DSL domains replaced by those of DLL4) (domain or fragment)
Kd [1]: 326 nM

D4^N109G (DLL4 N-terminus through EGF5 with the N109G mutation) (from UniProt Q9JI71 27-686) (domain or fragment)
Kd [1]: 341 nM

D4contD1 (DLL4 N-terminus through EGF5 with the N1 contact amino acids of the MNNL and DSL domains replaced by those of DLL1) (domain or fragment)
Kd [1]: 327 nM

mDLL1 (mouse DLL1, full length, expressed on ES cells) (from UniProt Q61483 18-722) (ligand)
luciferase Notch reporter in N1rep ES cells co-cultured with DLL1-expressing ES cells, against the basal signal with E14 ES cells [2]: 10 fold

mDLL4 (mouse DLL4, full length, expressed on ES cells) (from UniProt Q9JI71 27-686) (ligand)
luciferase Notch reporter in N1rep ES cells co-cultured with ligand-expressing ES cells; activation by DLL4 as fold of activation by DLL1, non-normalized [3]: 12.5 fold of DLL1
luciferase Notch reporter in N1rep ES cells co-cultured with ligand-expressing ES cells; activation by DLL4 normalized to DLL1 activation and corrected for protein expression and cell surface levels [3]: 9.42 fold of DLL1
luciferase Notch reporter in N2rep ES cells co-cultured with ligand-expressing ES cells; activation by DLL4 as fold of activation by DLL1, non-normalized [4]: 0.468 fold of DLL1
luciferase Notch reporter in N2rep ES cells co-cultured with ligand-expressing ES cells; activation by DLL4 normalized to DLL1 activation and corrected for protein expression and cell surface levels [4]: 0.35 fold of DLL1
